Changes are numbered by the printed parent chain.
B1: FF5 (antibody, human IgG1, kappa, L234A L235A, V domains shown)
VH: QVQLVQSGAEVKKPGASVKVSCKASGYTFTDYEVHWVRQAPGQGLEWMGAIHPGSGGAAYVQKFQGRVTMTRDTSISTAYMELSRLRSDDTAVYYCARWLPMDYWGQGTLVTVSS
VL: DIQMTQSPSSVSASVGDRVTITCRASQGINNWLVWYQQKPGKAPKLLLYAASRLESGVPSRFSGSGSGTDYTLTISSLQPEDIATYYCQQYLITPYTFGQGTKLEIKR
notes: Humaneered variant of E2E10, tested as full human IgG; Biotinylated for the neutrophil assay; also called LLG787; LLG787 (FF5)
B2: FF1 (antibody, human IgG1, kappa, L234A L235A, V domains shown)
VH: B1 VH with I76T, R85S
VL: B1 VL with L48I, R53S, E55Q, T69A, I83F
notes: Humaneered variant of E2E10, tested as full human IgG (captured or detected with anti-human IgG); Biotinylated for the neutrophil assay; also called LLG783; LLG783 (FF1)
B3: FF3 (antibody, human IgG1, kappa, L234A L235A, V domains shown)
VH: B1 VH
VL: B1 VL with L48I, R53S, E55Q, T69A, I83F
notes: Humaneered variant of E2E10, tested as full human IgG; Biotinylated for the neutrophil assay; also called LLG785; LLG785 (FF3)
B4: FF4 (antibody, human IgG1, kappa, L234A L235A, V domains shown)
VH: B1 VH
VL: B1 VL with N30T, V34A, L48I, R53I
notes: Humaneered variant of E2E10, tested as full human IgG; the text and claims pair heavy chain 56 with light chain 66; Biotinylated for the neutrophil assay; also called LLG786; LLG786 (FF4)
B5: FF6 (antibody, human IgG1, kappa, L234A L235A, V domains shown)
VH: B1 VH with M102I
VL: B1 VL
notes: Humaneered variant of E2E10, tested as full human IgG; Biotinylated for the neutrophil assay; also called LLG788; LLG788 (FF6)
B6: E2E10 (murine parental) (antibody, IgG1, V domains shown)
VH: QVQLQQSGAELVRPGASVKLSCKALGYTFTDYEMHWVKQTPVHGLEWIGAIHPGSGGAAYIQKFKGKATLTADKSSSTAHMELSSLTSEDSAVYYCTRWLPMDYWGQGTSVTVSS
VL: DIQMTQSSSYLSVSLGGRVTITCKASDHINNWLAWYQQKPGNAPRLLISGATSLETGVPSRFSGSGSGKDYTLSITGLQTEDVATYYCQQYLITPYTFGGGTKLEIK
notes: Mouse hybridoma monoclonal antibody, IgG1 with a kappa light chain; Biotinylated in the SET and neutrophil assays; also called Clone 39.1E2E10; mouse parental

What follows are binders tested against T1, APP-Avi-soluble cynomolgus monkey LOX-1 (61-273) (cynomolgus monkey, biotinylated at the Avi tag when immobilised in the SET assay) (assay: SPR Biacore T200, antibody captured by anti-human IgG, cynomolgus soluble LOX-1 as analyte, 1:1 model).
T1 construct: Expressed and purified in the same way as the human protein; also called cynomolgus monkey soluble LOX-1; Cynomolgus Monkey Soluble APP-Avi-LOX-1
T1 sequence (chain, as listed by the source): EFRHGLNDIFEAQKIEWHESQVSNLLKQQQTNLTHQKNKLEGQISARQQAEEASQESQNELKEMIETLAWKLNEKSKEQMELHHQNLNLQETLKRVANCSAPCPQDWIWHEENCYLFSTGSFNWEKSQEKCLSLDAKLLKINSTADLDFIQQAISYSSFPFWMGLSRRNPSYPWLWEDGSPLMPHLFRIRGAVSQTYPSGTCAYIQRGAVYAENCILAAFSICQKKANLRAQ
Protocol: Surface plasmon resonance measurements quantifying the interaction of humanized LOX-1 antibodies with human or cynomolgus monkey LOX-1 were done with the optical biosensor BIAcore T200 on a CM5 chip. Goat-anti-hlgG (gamma) (Invitrogen H10500) was coated at 3,000 RU on the CM5 chip in acetate buffer, pH 4.0. The running buffer used was PBS, pH 7.4 (filtered, degassed). Test antibodies were loaded into individual flow cells at a concentration of 1 ug/mL at a flow rate of 10 uL/min. The target number of IgG capture was between 20-30 RU, in HBS-EP buffer (0.01M HEPES, pH 7.4, 0.15M NaCl, 3 mM EDTA, 0.05% P20). Human or cynomolgus monkey soluble LOX-1 was diluted to a concentration of 33 nM in HBS-EP buffer, then diluted serially (1:3) down to a concentration of 0.137 nM. This represents six different concentrations of human or cynomolgus monkey LOX-1. The antigen was introduced into individual flow cells at a flow rate of 30 uL/min. Parameters for association time were set at 700 seconds and dissociation time was set at 5,400 seconds. Data were analyzed using buffer blanks, reference blank, and a 1:1 binding model for curve fitting in order to determine association and dissociation rate constants (ka and kd) and equilibrium binding constants (KD) (see results for FF1, FF3, FF4, FF5, and FF6 in Tables 7-8).
In the case of B1, the Kd is reported as 0.035 nM, the koff is reported as 4.8e-05 s⁻¹ and the kon is reported as 1.4e+06 M⁻¹ s⁻¹. B2 was tested, and the Kd was 0.012 nM, the koff was 1.3e-05 s⁻¹ and the kon was 1.1e+06 M⁻¹ s⁻¹. B3 showed a Kd of 0.023 nM, a koff of 1.7e-05 s⁻¹ and a kon of 770000 M⁻¹ s⁻¹. Binder B4 has a Kd of 0.001 nM, a koff of 2.6e-06 s⁻¹ and a kon of 2.1e+06 M⁻¹ s⁻¹. B5 was tested, and the Kd was 0.053 nM, the koff was 5e-05 s⁻¹ and the kon was 950000 M⁻¹ s⁻¹.

The binders below were run against Human Soluble His9-LOX-1 from R&D Systems (human, UniProt P78380 61-273) (assay: solution equilibrium titration (SET), MSD read-out).
Protocol: (§1) For humanized LOX-1 antibodies FF1, FF3, FF4, FF5, and FF6, the following solution equilibrium titration (SET) assay protocol was used to determine KD values. The assays were performed in a 96-well polypropylene plate (Thermo Scientific, Catalog no. AB-1127) as follows. A constant concentration of LOX-1 antibody (1 pM) was mixed with different concentrations of non-biotinylated human or cynomolgus monkey LOX-1 protein (3-fold serial dilution ranging from 1 nM to 0.017 pM) in SET buffer (PBS, pH 7.4 without CaCl₂ or MgCl₂, Gibco, catalog no. P7949; 0.5% w/v bovine serum albumin, fatty acid free, Calbiochem, catalog no. 26575; and 0.02% v/v Tween-20, Sigma, catalog no. P7949). The final reaction volume was […]. The plate was sealed using an adhesive film (WVR, catalog no. 60941-062) and incubated at 22° C. for 14 hours with constant shaking (300 rpm).
(§2) During the same period, a 384-well streptavidin-coated MSD plate (Meso Scale Discovery, catalog no. L21SA) was blocked by incubating the plate with 50 μL blocking buffer (PBS, pH 7.4, 5% w/v bovine serum albumuin) per well overnight at 4° C. The blocked MSD plate was then washed 3 times with wash buffer (PBS, pH 7.4 and 0.05% v/v Tween-20) using a plate washer (BioTek). Following washing, biotinylated human or cynomolgus monkey soluble LOX-1 protein (25 pM, 15 μL per well) was immobilized on the surface by incubation at 22° C. for one hour with constant shaking (600 rpm). The plate was then washed 3 times as described earlier. In some experiments, non-biotinylated soluble human LOX-1 protein was used (R&D systems, catalog no. 1798-LX-050) was used; in this case the LOX-1 protein was immobilized by overnight incubation at 1 nM concentration in a standard MSD plate (MSD, catalog no. L21XA). The equilibrium binding reactions (15 μL per well) were then applied to the MSD plate with immobilized LOX-1 and incubated for 30 min. The unbound material was removed by washing the plate, and the captured antibody was detected by adding 15 μL per well of a 1:500 dilution of Sulfa-tagged goat anti-human IgG (Mesa Scale Discovery, catalog no. R3AJ-1). The plate was then incubated for one hour with constant shaking (600 rpm). The plate was washed 3 times, and then […] 1×MSD read buffer T(Meso Scale Discovery, catalog no. R92TC-2) was added and the plate was developed using a Sector Imager 6000 (Mesa Scale Discovery).
B1 showed a Kd of 0.0008 nM. B2 gave a Kd of 0.0031 nM. For B3, the Kd was 0.0023 nM. For B4, the Kd was 0.0007 nM. Work on B5 yielded a Kd of 0.002 nM.

What follows are binders tested against T1, APP-Avi-soluble cynomolgus monkey LOX-1 … (assay: solution equilibrium titration (SET), MSD read-out).
Protocol: as §1, §2
B1 gave a Kd of 0.0006 nM. Binder B2 has a Kd of 0.0018 nM. In the case of B3, the Kd is reported as 0.0034 nM. Work on B4 yielded a Kd of 0.0007 nM. For B5, the Kd was 0.0016 nM.

What follows are binders tested against T2, Human LOX-1 full-length protein (human, UniProt P78380 1-273) (assay: flow cytometry, inhibition of dil-OxLDL binding to huLOX-1/HEK293 cells).
T2 construct: also called huLOX-1/HEK293 cells; human LOX-1 transfected HEK293 cells
Protocol: The huLOX-1/HEK293 cells were resuspended at 1×10⁶ cells/mL and seeded 50 μL per well into a 96-well V-bottom plate (5×10⁴ cells per well). LOX-1 or irrelevant control antibodies in assay medium (DMEM+10% FBS) were then added to the cells. Typical final antibody concentrations ranged from 0.006 μg/mL to 20 μg/mL. The cells were incubated at 37° C. for 1 hour, then washed twice with warm HBSS. Dil-oxLDL (human dil-labeled “High Oxidized” LDL, Kalen Biomedical, catalog number 770262-9; Dil is 1,1′-dioctadecyl-3,3,3′,3′-tetramethylindocarbocyanine perchlorate) in 50 ul assay medium was then added to a final concentration 30 to 100 μg/mL. The cells were then incubated at 37° C. for 2 hours, and then washed twice with FACS buffer (2% FBS in PBS). Cells were then analyzed for intensity of Di-I fluorescence by flow cytometry, as depicted in FIG. 2 and Table 3.
Work on B1 yielded an IC50 of 4.1 nM. B2 gave an IC50 of 5.5 nM. B3 gave an IC50 of 3.3 nM. For B4, the IC50 was 5 nM. With B5 the IC50 was 5.9 nM. B6 showed an IC50 of 4 nM.

Each binder was assayed against T2, Human LOX-1 full-length protein (assay: cell-based or functional assay).
B1 was tested, and the “Reactive oxygen species (ROS) generation in huLOX-1/HEK293 cells (IC50, nM)” value (shortened to “Reactive oxygen species (ROS) generation”) was 4.8 nM. B2 was tested, and the “Reactive oxygen species (ROS) generation” value was 6 nM. In the case of B3, the “Reactive oxygen species (ROS) generation” value is reported as 7.4 nM. B4 was tested, and the “Reactive oxygen species (ROS) generation” value was 5.3 nM. With B5 the “Reactive oxygen species (ROS) generation” value was 7.9 nM. B6 was tested, and the “Reactive oxygen species (ROS) generation” value was 5.7 nM.

What follows are binders tested against T1, APP-Avi-soluble cynomolgus monkey LOX-1 … (assay: SPR Biacore T200, antibody captured by anti-mouse IgG, cynomolgus soluble LOX-1 as analyte, 1:1 model).
Protocol: For murine LOX-1 antibody E2E10 binding to human and cynomolgus monkey LOX-1, a Biacore T200 was primed with fresh, filtered running buffer (1×HBS-EP+(GE catalog number BR-1006-60)). A CM5 chip (GE catalog number BR-1005-30) was prepared using a mouse antibody capture kit (GE catalog number BR-1008-38) and an amine coupling kit (GE catalog number BR-1000-50). Briefly, a new chip was activated with EDC/NHS at 10 ul/min for 420 sec. Anti-mouse IgG antibody was immobilized at […] 10 mM acetate pH 5.0 at 10 ul/min for 420 sec. The chip surface was deactivated with 1M ethanolamine solution (10 ul/min for 420 sec) and then conditioned three times with 10 mM Glycine-HCl, pH 1.5 (GE catalog number BR-1003-54) at 60 ul/min for 30 sec.
For sample cycles, 1) Ms-anti-Hu LOX-1 mAb was captured on flow cell 2, 3, or 4 for a pre-determined amount of time that allowed for capture of approximately 20RUs at 10 ul/min. Flow cell 1 was used as a reference, 2) running buffer for 30s at 60 ul/min, 3) human soluble LOX-1 or cynomolgus monkey soluble LOX-1 diluted in running buffer at various concentrations (with at least two duplicate samples and multiple buffer blanks for 350 sec at 60 ul/min, with either 750 sec or 3000 sec dissociation time), 4) regeneration buffer for 60 sec at 60 ul/min, 5) running buffer for 35s at 60 ul/min, extra wash with running buffer and including a carry-over control. Data were analyzed using buffer blanks, reference blank, and a 1:1 binding model for curve fitting in order to determine association and dissociation rate constants (ka and kd) and equilibrium binding constants (KD) (see results for E2E10 in Tables 7-8).
In the case of B6, the Kd is reported as 0.015 nM, the koff is reported as 2.5e-05 s⁻¹ and the kon is reported as 1.7e+06 M⁻¹ s⁻¹.

These binders were tested against T2, Human LOX-1 full-length protein (assay: flow cytometry, biotinylated antibody on primary human neutrophils, PE-streptavidin).
Protocol: The resulting cell suspension was carefully transferred to a 50 mL conical tube containing 10 mL Ficoll-Paque, layering the cell suspension on top of the Ficoll-Paque, and the tube was then centrifuged at 1400 rpm (400×g) for 30 minutes at room temperature. The top layer was the discarded. To the resulting cell pellet, 10 mL 0.2% ice-cold sodium chloride was added, and the mixture was incubated for exactly 30 seconds to lyse red blood cells; 10 mL of ice-cold 1.6% sodium chloride was added to restore isotonicity. The cell suspension was then centrifuged at 1200 rpm ([…]) for 5 minutes. The supernantant was then discarded, and the red blood cell lysis procedure repeated once more. The resulting cell pellet was resuspended in FACS buffer (2 mM EDTA, 1% BSA, and 0.2% sodium azide in PBS) at a cell density of 2×10⁶ cells/mL.
The cell suspension containing freshly isolated human neutrophils was transferred (50 ul/well) to wells of a 96-well V-bottom plate (1×10⁵ cells/well) (Costar, catalog number 3894). Blocking buffer (4% normal rabbit serum diluted in FACS buffer (2 mM EDTA, 1% BSA, and 0.2% sodium azide in PBS) (50 ul/well) was added and the plate was incubated on ice for 30 minutes. Biotinylated LOX-1 antibody (10 μl) in FACS buffer was then added to the wells at final concentrations ranging from 1 ng/ml to 5 ug/mL, and the plate was incubated on ice for 30 minutes. The plate was then centrifuged at 1200 rpm (250-300×g) for 3 minutes and supernatant was discarded. The cells were then washed twice with 0.2 mL FACS buffer, and then 0.1 mL of PE-streptavidin (BD Pharmingen catalog number 554061) diluted at 1:250 in FACS buffer was added, and the plate incubated on ice for 30 minutes. The plate was then centrifuged again, supernatant discarded, and the cells washed twice with 0.2 mL FACS buffer. Cells were then resuspended in 0.1 mL of fixing buffer (FACS buffer with 2% paraformaldehyde) and analyzed using a FACS instrument. To determine an EC50 value for neutrophil binding by LOX-1 antibodies, the LOX-1 staining intensity determined by FACS was plotted vs. the concentration of the antibody as shown in FIG. 5 and Table 3.
Binder B1 has an EC50 of 0.08 mg/L. With B2 the EC50 was 0.15 mg/L. Binder B3 has an EC50 of 0.13 mg/L. In the case of B4, the EC50 is reported as 0.23 mg/L. Binder B5 has an EC50 of 0.28 mg/L. B6 showed an EC50 of 0.04 mg/L.

— patent US20170152313A1 (Novartis, published 2017)
